Data reported in article PMC4899126.

Columns and labels:
[1] = target: E.r. RT domain (group II intron maturase from Eubacterium rectale M104/1, residues 1-293) (Eubacterium rectale M104/1); assay: SEC-MALS
[2] = target: E.r. RT domain (group II intron maturase from Eubacterium rectale M104/1, residues 1-293) (Eubacterium rectale M104/1); assay: SEC-MALS; remark: listed apart in the source
[3] = target: E.r. RT domain (group II intron maturase from Eubacterium rectale M104/1, residues 1-293) (Eubacterium rectale M104/1); assay: AUC
[4] = target: E.r. RT domain (group II intron maturase from Eubacterium rectale M104/1, residues 1-293) (Eubacterium rectale M104/1); assay: AUC; remark: listed apart in the source

Measured: stoichiometry N

E.r. RT domain (group II intron maturase from Eubacterium rectale M104/1, residues 1-293) (domain or fragment)
2: all assays above
